How the values were obtained:
B16 melanoma tumors [1] = experiment: Chemerin-secreting B16 melanoma tumors: tumor-infiltrating leukocytes (Example 10); format: in vivo, C57BL6 mice; conditions: tumors engineered to secrete chemerin vs control tumors; FIG. 9
From the text: (§1) In order to determine the effect of chemerin on the TGS components in a mouse model, B16 melanoma tumors were implanted subcutaneously in C57BL6 mice. One cohort of mice received control tumors that received no treatment. The other cohort received tumors that were engineered to secrete the chemoattractant chemerin locally, thereby mimicking intratumoral injections of the chemoattractant.

B16 melanoma tumors [2] = experiment: Mouse model of melanoma treated with chemerin: tumor growth, with NK cell depletion (Example 5); format: in vivo, mice (C57BL/6); conditions: FIG. 10
Procedure: (§2) A mouse model of melanoma was used to study the effect of an immunomodulator, chemerin (RARRES2) (Pachynski et al. J. Exp. Med. 209(8):1427-1435, 2012). Both control and chemerin-over expressing tumors were transplanted into mice. Intratumoral injections of chemerin were also evaluated. For all animal experiments, C57BL/6 or B6.129S7-Rag1tm1Mom/J (RAG1 KO) mice were purchased from the Jackson Laboratory. Murine B16F0 melanoma, L1.2 B lymphoma, and human 293 HEK lines were obtained from the American Type Culture Collection. Cell lines were grown in complete media consisting of RPMI 1640 supplemented with 10% FBS, sodium pyruvate, penicillin/streptomycin, and beta-mercaptoethanol.
(§3) To evaluate the effect of constitutively secreted chemerin on tumor growth, control or chemerin-expressing B16 melanoma tumor cells (0.5×10^6 or 1×10^6) were inoculated subcutaneously into mice. Tumor growth was measured every 2-4 d by calipers, and size was expressed as the product of perpendicular length by width in square millimeters. Mice were euthanized when tumor size reached about 400 mm^2 or when tumor sites ulcerated or at day 17 to evaluate for tumor-infiltrating leukocytes (TILs) by FACS.
(§4) To evaluate the effect of exogenous chemerin on tumor growth, tumor lines were inoculated as indicated. Recombinant, active, carrier-free murine chemerin (R&D Systems) was reconstituted in sterile PBS. […]

B16 melanoma tumors [3] = experiment: Mouse model of melanoma treated with chemerin: tumor-infiltrating leukocytes by FACS (Example 5); format: in vivo, mice (C57BL/6)
Procedure: as §2, §3, §4

B16 melanoma tumors [4] = experiment: Control, EGFR-expressing and chemerin-secreting B16 tumors: tumor-infiltrating leukocytes by FACS (Example 11); format: in vivo, mice; conditions: chemerin-secreting B16 tumors; Day 11; FIG. 13B
Procedure: (§5) In a separate experiment, three cohorts of mice were inoculated with B16 melanoma tumors. […] Each group comprised three mice. Tumors were allowed to grow until Day 9. […] Forty-eight hours after the single injection (Day 11), the tumors from all three groups were analyzed for infiltrating NK and T cells, as well as CD137 (TNFRSF9) expression.

CD137 (TNFRSF9) [5] = experiment: CD137 expression on tumor-infiltrating leukocytes by FACS (Example 11); format: in vivo, mice; conditions: chemerin-secreting B16 tumors; vs control tumors treated with cetuximab; FIG. 14
Procedure: as §5

B16 melanoma tumors [6] = experiment: Control, EGFR-expressing and chemerin-secreting B16 tumors: tumor size (Example 11); format: in vivo, mice; conditions: chemerin-secreting B16 tumors; Day 11; vs control tumors treated with cetuximab; FIG. 16
Procedure: as §5
The same tumors from the three groups were analyzed for tumor size (mm^2), a surrogate for clinical outcomes and survival, at pretreatment ([…]) and post-treatment (Day 11).

B16 melanoma tumors [7] = experiment: Chemerin-secreting B16 melanoma tumors: tumor size (Example 10); format: in vivo, C57BL6 mice; conditions: chemerin (RARRES2) secreting tumors vs control tumors; p<0.05; FIG. 11
From the text: as §1
Clinically, the changes in the number of tumor-infiltrating leukocytes also correlated with tumor growth as well.

CD137 = experiment: RT-qPCR of tumor biopsies for CD137 (Example 11); format: in vivo, mice
Procedure: as §5
Tumor biopsies from the three treatment groups were also analyzed by RT-qPCR to measure LMO2 and CD137 expression.
The TGS takes into account the relative expression levels of both CD137 and LMO2. Therefore, the ratio of relative expression of CD137 to LMO2 was determined.

LMO2 = experiment: RT-qPCR of tumors for LMO2 (Example 10); format: in vivo, C57BL6 mice; conditions: after 17 days; chemerin tumors vs control; FIG. 12
Procedure: as §1
(§6) After a period of 17 days, tumors were analyzed by RT-qPCR for LMO2 and CD137 (TNFRSF9), the key components of the TGS. […] Accordingly, a calculated TGS from the tumors would result in improved/lowered TGS score for the chemerin-treated group, whereas the control group that was not treated, and thus had fewer infiltrating NK and T cells, would have a worse/higher TGS score. GAPDH was used as the housekeeping/reference gene (not shown).

CD137 (TNFRSF9) [8] = experiment: RT-qPCR of tumors for CD137 (Example 10); format: in vivo, C57BL6 mice; conditions: after 17 days; chemerin tumors (n=5) vs control group (n=4); GAPDH reference; FIG. 12
Procedure: as §1, §6

B1: chemerin: chemoattractant polypeptide that attracts cells including NK cells, T cells, macrophages and dendritic cell subsets; given recombinant or secreted by engineered tumors (protein, UniProt Q99969 21-157, looked up)
Retinoic acid receptor …: ELTEAQRRGLQVALEEFHKHPPVQWAFQETSVESAVDTPFPAGIFVRLEFKLQQTSCRKRDWKKPECKVRPNGRKRKCLACIKLGSEDKVLGRLVHCPIETQVLREAEEHQETQCLRVQRAGEDPHSFYFPGQFAFS
tumor-infiltrating leukocytes (NK and T cells) (B16 melanoma tumors [1]): increase in tumor-infiltrating leukocytes | clinical efficacy on tumor growth after depletion of NK cells (B16 melanoma tumors [2]; NK cells depleted with anti-Asialo GM1): abrogated the clinical efficacy | tumor growth (B16 melanoma tumors [2]; mice): inhibit tumor growth | NK and T cells in murine tumors (B16 melanoma tumors [3]; FIG. 8): increase in NK and T cells | infiltrating leukocyte subsets in murine tumors (activated NK and T cells) (B16 melanoma tumors [3]; FIG. 9): increased the representation of activated NK and T cells | CD8+ T cells and NK cells of CD45+ TIL (B16 melanoma tumors [4]): small increases in both CD8+ T cells and NK cells | CD137 expression on total tumor-infiltrating leukocytes (FACS) (CD137 (TNFRSF9) [5]): increase in CD137 expression | tumor size (B16 melanoma tumors [6]): significantly smaller than control tumors | tumor size (B16 melanoma tumors [7]): significantly smaller than control tumors | CD137:LMO2 ratio of relative expression (CD137; chemerin treated tumors vs non-EGFR and cetuximab treated tumors, FIG. 19): greater | relative CD137 expression (RT-qPCR) (CD137; tumors treated with chemerin, 48 hours time point, FIG. 17B): significantly higher | LMO2 expression by RT-qPCR (LMO2): not significantly changed | CD137 (TNFRSF9) expression by RT-qPCR (CD137 (TNFRSF9) [8]): significantly increased
